Measurements as given in paper PMC11199599, “SNM1A is crucial for efficient repair of complex DNA breaks in human cells” (Nature Communications, 2024).
Each block holds one binder with its values, some of them ahead of it.

Assays:
[1] = target: T1, Lysine 164 monoubiquitinated human PCNA (PCNA^ub) (human | , UniProt P12004 1-261; P0CG48 1-76, monoubiquitinated at lysine 164 | C-terminus joined to lysine 164 of PCNA); experiment: pull-down; GST-SNM1A peptides held on glutathione-agarose beads, washed with PBS with 250 mM to 1 M salt; 150 ng purified PCNA or PCNA^ub added, tumbled at 4 °C for 1 h, washed as before; immunoblot for PCNA, PCNA^ub, GST; conditions: both partners purified
T1 construct: PCNA (proliferating cell nuclear antigen), human, carrying one ubiquitin on lysine 164; ubiquitin, conjugated in vitro to lysine 164 of PCNA; also called ubiquitinated PCNA; lysine-164 monoubiquitinated PCNA

Human PCNA = target: T2, Human PCNA (human, UniProt P12004 1-261); experiment: as above; conditions: both partners purified
T2 construct: PCNA (proliferating cell nuclear antigen), human; also called native PCNA; purified PCNA; source: E. coli BL21, purified (IMAC, gel filtration on Superdex 200)
T2 sequence (P12004 whole entry): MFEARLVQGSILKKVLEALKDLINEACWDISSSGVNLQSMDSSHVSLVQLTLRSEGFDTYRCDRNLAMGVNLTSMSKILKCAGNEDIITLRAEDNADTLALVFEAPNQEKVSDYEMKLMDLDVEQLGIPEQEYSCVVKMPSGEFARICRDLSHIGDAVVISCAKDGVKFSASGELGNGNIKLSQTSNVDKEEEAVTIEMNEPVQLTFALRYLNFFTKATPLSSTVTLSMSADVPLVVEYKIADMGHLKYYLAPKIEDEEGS

binding result [1]: binds
binding result (Human PCNA): binds
B1: GST-tagged SNM1A PIP box peptide (GST-PIP) (domain or fragment, human)
chain: ARHPSTKVMKQMDIGVYFGLPPKRKEEKLL
notes: SNM1A (DCLRE1A), human, stretch spanning the PIP box; numbering as for NP_001258745.1; Cloned into pET-41b (MfeI/SalI); also called wildtype PIP box peptide; not shown: GST, N-terminal, kept

binding result [1]: binds
B2: GST-tagged SNM1A peptide spanning the PBZ and UBZ motifs (GST-PBZ-UBZ) (domain or fragment, human)
chain: RPVYDGYCPNCQMPFSSLIGQTPRWHVFECLDSPPRSETECPDGLLCTSTIPFHYKRYTHFLLAQSRAG
notes: SNM1A (DCLRE1A), human, stretch spanning the UBZ and PBZ motifs; numbering as for NP_001258745.1; Cloned into pET-41b; also called UBZ/PBZ peptide; PBZ-plus-UBZ; not shown: GST, N-terminal, kept
